Values of other authors as cited in article PMC4074225.

Target: PCNA (Homo sapiens) (UniProt P12004)
Test: SPR

Chain of UniProt P12004 (P12004 whole entry): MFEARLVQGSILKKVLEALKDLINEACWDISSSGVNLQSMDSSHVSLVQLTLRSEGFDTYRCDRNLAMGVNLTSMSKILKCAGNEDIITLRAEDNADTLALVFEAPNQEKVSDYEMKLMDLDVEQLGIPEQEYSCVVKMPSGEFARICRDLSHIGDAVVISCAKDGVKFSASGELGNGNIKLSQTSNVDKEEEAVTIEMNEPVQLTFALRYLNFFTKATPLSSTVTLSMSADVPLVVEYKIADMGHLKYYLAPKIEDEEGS

Kd: 400 nM
Substance: DNA polymerase eta 694-713 (from UniProt Q9Y253)
